Measurements reported in patent US20030009022A1 (published 2003).
Ends that are not written are not given here. * marks the point of attachment. For = O=C*

T1: human formyl peptide receptor FPR1 (human, UniProt P21462 1-350)
T1 sequence (looked up): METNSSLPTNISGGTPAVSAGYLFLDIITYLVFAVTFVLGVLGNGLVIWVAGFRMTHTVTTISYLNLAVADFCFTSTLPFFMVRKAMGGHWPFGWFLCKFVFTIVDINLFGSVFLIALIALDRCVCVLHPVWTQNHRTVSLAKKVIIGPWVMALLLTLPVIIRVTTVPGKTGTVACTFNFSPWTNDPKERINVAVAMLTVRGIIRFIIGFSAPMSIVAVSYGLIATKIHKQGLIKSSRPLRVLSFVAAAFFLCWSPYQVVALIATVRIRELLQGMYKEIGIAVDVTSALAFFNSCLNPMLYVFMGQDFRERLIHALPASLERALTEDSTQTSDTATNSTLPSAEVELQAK

T2: human formyl peptide receptor like-1 (FPRL-1) receptor (human, UniProt P25090 1-351)
T2 sequence (looked up): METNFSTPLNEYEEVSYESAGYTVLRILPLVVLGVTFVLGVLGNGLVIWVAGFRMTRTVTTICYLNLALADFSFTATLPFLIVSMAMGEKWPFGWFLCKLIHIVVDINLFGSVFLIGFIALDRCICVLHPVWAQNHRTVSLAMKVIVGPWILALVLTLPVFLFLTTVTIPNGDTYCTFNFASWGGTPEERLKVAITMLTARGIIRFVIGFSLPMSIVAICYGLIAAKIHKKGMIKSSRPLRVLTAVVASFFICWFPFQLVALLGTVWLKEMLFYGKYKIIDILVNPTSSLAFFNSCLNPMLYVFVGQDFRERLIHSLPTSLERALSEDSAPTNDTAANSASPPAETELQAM


Legend:
Assay in all cases: cell-based or functional assay
[1] = target: T1, human formyl peptide receptor FPR1
[2] = target: T2, human formyl peptide receptor like-1 …
[3] = target: T2, human formyl peptide receptor like-1 …; remark: listed apart in the source
[4] = target: T1, human formyl peptide receptor FPR1; remark: listed apart in the source

EC50(nM), transient Ca2+ flux in HEK293/Gα16 cells expressing FPR1 [1] [nM] | EC50(nM), transient Ca2+ flux in HEK293/Gα16 cells expressing FPRL-1 [2] [nM] | Binder | other results
> 10000 | < 2 | LESIFRSLLFRVM [peptide MMK-1] | 
690 | 87 | SMCPTASAWVWLM [peptide AF-2] | 
> 10000 | 2400 | PPFFFRPVGMF [peptide DM-1] | 
5000 | 16 | CPAAVLWRWVPM [peptide AF-1] | 
> 10000 | 35 | SLLWLTCRPWEAM [peptide A5, Ser-Leu-Leu-Trp-Leu-Thr-Cys-Arg-Pro-Trp-Glu-Ala-Met] | EC50, calcium mobilization in indo-1 loaded human neutrophils [3]: ~300 nM; apparent EC50, induction of β-galactosidase activity by synthetic peptide added to yeast strain CY6565 [3]: ~5000 nM; induction of β-galactosidase activity (FUSI-lacZ, yeast) [3]: 7 fold; stimulation over background levels of β-galactosidase (fus1-lacZ, yeast) [3]: 8 fold
380 | 650 | RFPKNCHLRPPRMILFTALV [peptide AF-3] | 
< 0.3 | 80 | MMWLL [peptide MMWLL, Met-Met-Trp-Leu-Leu] | 
< 0.3 | 40 | For-Met-Leu-Phe [fMLP, formyl-MLF] | EC50, calcium mobilization in human neutrophils [4]: < 0.2 nM; EC50, transient calcium mobilization in HEK293/Gα16 cells expressing FPRL-1 [3]: 400 nM
10 | 2 | For-SLLWLTCRPWEAM [f-A5, N-terminally formylated derivative of peptide A5] | EC50, calcium mobilization in HEK293/Gα16 cells expressing FPR1 [4]: 0.1 nM; EC50 against that of A5, calcium mobilization in indo-1 loaded human neutrophils [3]: 10 fold lower EC50 than A5
